Molecular target: T1, HA-GCM1 (UniProt Q9NP62 1-436)
T1 construct: Expressed in transfected 293T or Hep3B cells; also called glial cells missing 1; pHA-GCM1; not shown: N-terminal HA tag
T1 sequence (looked up): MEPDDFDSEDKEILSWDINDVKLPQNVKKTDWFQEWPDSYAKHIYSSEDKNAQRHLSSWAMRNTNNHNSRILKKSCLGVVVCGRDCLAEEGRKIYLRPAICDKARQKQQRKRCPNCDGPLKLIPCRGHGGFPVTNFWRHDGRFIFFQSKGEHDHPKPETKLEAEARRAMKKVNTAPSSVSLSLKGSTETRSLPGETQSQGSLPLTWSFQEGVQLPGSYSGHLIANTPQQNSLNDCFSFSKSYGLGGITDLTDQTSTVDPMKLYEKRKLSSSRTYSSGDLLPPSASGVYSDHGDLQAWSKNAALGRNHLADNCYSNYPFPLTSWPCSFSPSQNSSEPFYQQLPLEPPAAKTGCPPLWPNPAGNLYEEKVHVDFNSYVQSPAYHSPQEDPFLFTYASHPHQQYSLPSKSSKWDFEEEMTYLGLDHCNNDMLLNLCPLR
Assay: co-immunoprecipitation with HA and FLAG mAbs in transfected 293T cells
From the text: 293T cells were transfected with different combinations of pΔNp63α-FLAG, pOVOL1-FLAG, and pHA-GCM1 for co-immunoprecipitation analysis with HA and FLAG mAbs. […] 293T cells were transfected with pHA-GCM1 and different pΔNp63α-FLAG plasmids encoding full-length or deletion mutant ΔNp63α-FLAG proteins, followed by co-immunoprecipitation analysis with HA and FLAG mAbs. Schematic representation of functional domains in ΔNp63α is presented. DBD: DNA-binding domain; OD: oligomerization domain; SAM: sterile alpha motif; TID: transactivation inhibitory domain. In a separate experiment, 293T cells were transfected with pΔNp63α-HA and pGAL4-FLAG or different pGAL4-GCM1-FLAG plasmids encoding full-length or deletion mutant GAL4GCM1-FLAG proteins for co-immunoprecipitation analysis with HA and FLAG mAbs. Schematic representation of functional domains in GCM1 is presented. TAD: transactivation domain. […] Glutathione-conjugated agarose beads pre-bound with GST, GST-SAM or GST-OD were incubated with recombinant GCM1-FLAG protein in pull-down assays. […] Mock and ΔNp63α-FLAG-expressing BeWo cells were subjected to immunoblotting (left) and quantitative RT-PCR (right) analyses of GCM1, HTRA4, and hCGβ proteins and transcripts. […] BeWo cells stably expressing scramble or GCM1 shRNA were subjected to immunoblotting (left) and quantitative RT-PCR (right) analyses of GCM1 and ΔNp63α proteins and transcripts.

binding result: no binding
B1: OVOL1-FLAG (other, human, UniProt O14753 1-267, looked up)
chain: MPRAFLVKKPCVSTCKRNWSELPDEERGEIYVPVSLGFCPPQPYREPEPSVAEPPSCPLALNMSLRDSSYSMAPGPCVVAQLPSEDMGHLTDPQSRDHGFLRTKMKVTLGDSPSGDLFTCRVCQKAFTYQRMLNRHMKCHNDVKRHLCTYCGKGFNDTFDLKRHVRTHTGVRPYKCSLCDKAFTQRCSLESHLKKIHGVQQKYAYKERRAKLYVCEECGCTSESQEGHVLHLKEHHPDSPLLRKTSKKVAVALQNTVTSLLQGSPHL
notes: also called pOVOL1-FLAG; pOVOL-1-FLAG; not shown: C-terminal FLAG tag
